From IntAct's records for PubMed 18388957

B1: Inhibitor of growth protein 1 (Homo sapiens), Q9UK53-2 (parent)
chain: MLSPANGEQLHLVNYVEDYLDSIESLPFDLQRNVSLMREIDAKYQEILKELDECYERFSRETDGAQKRRMLHCVQRALIRSQELGDEKIQIVSQMVELVENRTRQVDSHVELFEAQQELGDTAGNSGKAGADRPKGEAAAQADKPNSKRSRRQRNNENRENASSNHDHDDGASGTPKEKKAKTSKKKKRSKAKAEREASPADLPIDPNEPTYCLCNQVSYGEMIGCDNDECPIEWFHFSCVGLNHKPKGKWYCPKCRGENEKTMDKALEKSKKERAYNR

Variants of: B1
Conditions: with nqo1_human NQO1, P15559

| effect of a mutation on the interaction | Variant |
| --- | --- |
| disrupting interaction | S126A |
